Source: publication PMC2925043
Blank lines part the entries; values can stand above or below the substance they belong to.

Tests used:
[1] = molecular target: EGFR (low-affinity site) (Homo sapiens) (UniProt P00533); settings: cited from earlier work
[2] = molecular target: EGFR (high-affinity site) (Homo sapiens) (UniProt P00533); settings: cited from earlier work
[3] = molecular target: Drosophila EGFR extracellular region (s-dEGFR) with C-terminal His tag and AviTag, biotinylated (Drosophila melanogaster) (UniProt P04412); assay: fluorescent ligand binding assay on plates
[4] = molecular target: dimerization-defective s-dEGFR variant (s-dEGFR^dim-arm), biotinylated (Drosophila melanogaster) (UniProt P04412); assay: fluorescent ligand binding assay on plates
[5] = molecular target: Drosophila EGFR extracellular region lacking domain V (s-dEGFRΔV) (Drosophila melanogaster) (UniProt P04412)

Substance: EGF (from UniProt P01133)
Kd [1]: 2 nM | Kd [2]: 0.3 nM

KD of the high-affinity site (fit with two independent classes of site) [3]: 4.7 nM | Kd [3]: 49.5 nM | Kd [4]: 920 nM
Substance: SpitzEGF labeled with Alexa Fluor-488 (ligand)

Kd [5]: 4370 nM
Substance: Spitz_(EGFΔC), variant of SpitzEGF with a C-terminal truncation of six amino acids (ligand)

Kd [5]: 368 nM
Substance: EGF-like domain of Spitz (SpitzEGF, residues 48-105) (ligand)
